Like-named read-outs stand apart in the source and are kept apart here.
Tests used:
Format in all cases: biochemical
[1] = system: Penicillium pinophilum GH61A polypeptide; conditions: AVICEL; ascorbic acid 5 mM; P. pinophilum GH61A 0.4 or 2 mg per gram cellulose; 1, 3 and 7 days
[2] = system: Trichoderma reesei cellulase composition
[3] = molecular target: Trichoderma reesei GH61B polypeptide (Trichoderma reesei, UniProt Q7Z9M7); assay: Effect of ascorbic acid on T. reesei GH61B polypeptide during hydrolysis of AVICEL; conditions: ascorbic acid 5 mM
Trichoderma reesei GH61B polypeptide, sequence (Q7Z9M7 20-249): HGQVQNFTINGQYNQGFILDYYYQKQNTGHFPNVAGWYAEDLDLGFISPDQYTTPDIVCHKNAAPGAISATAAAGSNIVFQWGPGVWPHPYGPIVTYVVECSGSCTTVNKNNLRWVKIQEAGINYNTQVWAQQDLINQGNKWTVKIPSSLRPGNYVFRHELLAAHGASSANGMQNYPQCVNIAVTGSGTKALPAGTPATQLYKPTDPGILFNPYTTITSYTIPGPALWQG

[4] = molecular target: Aspergillus fumigatus GH61B polypeptide (Aspergillus fumigatus, UniProt Q4WP32); assay: Effect of ascorbic acid on A. fumigatus GH61B polypeptide during hydrolysis of AVICEL; conditions: ascorbic acid 5 mM, A. fumigatus GH61B 0.4 or 2 mg per gram cellulose, 1, 3 and 7 days
Aspergillus fumigatus GH61B polypeptide, sequence (Q4WP32 22-250): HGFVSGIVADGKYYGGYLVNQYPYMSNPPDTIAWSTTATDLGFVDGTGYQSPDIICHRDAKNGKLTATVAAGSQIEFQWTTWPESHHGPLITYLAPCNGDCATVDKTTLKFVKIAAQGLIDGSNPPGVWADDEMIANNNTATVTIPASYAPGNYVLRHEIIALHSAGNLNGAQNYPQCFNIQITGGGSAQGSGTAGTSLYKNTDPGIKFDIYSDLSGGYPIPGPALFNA

[5] = system: Trichoderma reesei cellulase composition; conditions: for Percent conversion of milled unwashed PCS: GH61 present (0.2 mg/g cellulose); for Percent conversion of milled unwashed PCS / Enhancement of hydrolysis of milled unwashed PCS by the presence of GH61 polypeptide: no heterocyclic compound
[6] = system: Thielavia terrestris GH61E polypeptide; assay: Effect of ascorbic acid on T. terrestris GH61E polypeptide during hydrolysis of AVICEL; conditions: ascorbic acid 5 mM, T. terrestris GH61E 0.4 or 2 mg per gram cellulose, 1, 3 and 7 days
[7] = system: Talaromyces stipitatus GH61A polypeptide; conditions: AVICEL; ascorbic acid 5 mM; T. stipitatus GH61A 0.4 or 2 mg per gram cellulose; 1, 3 and 7 days
[8] = system: Trichoderma reesei cellulase composition; assay: Hydrolysis of AVICEL (microcrystalline cellulose) by the T. reesei cellulase composition, with/without GH61 polypeptide or heterocyclic compound; conditions: GH61 polypeptide present (0.4 mg per g cellulose), no heterocyclic compound

O=C1OC(C(O)CO)C(O)=C1O (stereo not drawn) [ascorbic acid, (1,2-dihydroxyethyl)-3,4-dihydroxyfuran-2(5H)-one]
GH61 effect in the presence of heterocyclic compound [1]: greater than 1 | heterocyclic compound effect(+GH61) [1]: increased | heterocyclic compound effect(no GH61) ([2]; milled washed PCS, compound 5 mM, no GH61, 1, 3 and 7 days): slightly decreased | heterocyclic compound effect(+GH61) ([3]; T. reesei GH61B 2 mg per g cellulose): increased | GH61 effect in the presence of heterocyclic compound ([3]; T. reesei GH61B at high level (2 mg per g cellulose)): greater than 1 | GH61 effect in the presence of heterocyclic compound [4]: greater than 1 | heterocyclic compound effect(+GH61) [4]: increased | heterocyclic compound effect(no GH61) ([5]; milled unwashed PCS, compound 5 mM, cellulase 2 mg per g cellulose, no GH61, 1, 3 and 7 days): greater than 1 | GH61 effect in the presence of heterocyclic compound [6]: greater than 1 | heterocyclic compound effect(+GH61) [6]: increased | GH61 effect in the presence of heterocyclic compound [7]: greater than 1 | heterocyclic compound effect(+GH61) [7]: increased

B1: T. aurantiacus GH61A polypeptide: GH61A polypeptide having cellulolytic enhancing activity (SEQ ID NO: 14), recombinantly prepared using Aspergillus oryzae JaL250 as a host (protein, listed as Thermoascus aurantiacus)
chain: MSFSKIIATAGVLASASLVAGHGFVQNIVIDGKYYGGYLVNQYPYMSNPPEVIAWSTTATDLGFVDGTGYQTPDIICHRGAKPGALTAPVSPGGTVELQWTPWPDSHHGPVINYLAPCNGDCSTVDKTQLEFFKIAESGLINDDNPPGIWASDNLIAANNSWTVTIPTTIAPGNYVLRHEIIALHSAQNQDGAQNYPQCINLQVTGGGSDNPAGTLGTALYHDTDPGILINIYQKLSSYIIPGPPLYTG
Percent conversion of AVICEL ([8]; 1 day, 16±1% in the absence of GH61): 16±1% | Percent conversion of AVICEL ([8]; 3 days, 31±4% in the absence of GH61): 30±4% | Percent conversion of AVICEL ([8]; 7 days, 45±3% in the absence of GH61): 45±4% | Enhancement of hydrolysis of milled washed PCS by the presence of GH61 polypeptide ([2]; 1 day, no heterocyclic compound): 14% | Enhancement of hydrolysis of milled washed PCS by the presence of GH61 polypeptide ([2]; 3 days, no heterocyclic compound): 31% | Enhancement of hydrolysis of milled washed PCS by the presence of GH61 polypeptide ([2]; 7 days, no heterocyclic compound): 31% | Percent conversion of milled washed PCS ([2]; day 1, GH61 present (0.4 mg per g cellulose), cellulase 4 mg per g cellulose, no heterocyclic compound, 37±1% in the absence of GH61): 42±1% | Percent conversion of milled washed PCS ([2]; day 1, cellulase 2 mg per g cellulose, GH61 at 10% (w/w) of the cellulase composition, 24±0.7% in the absence of GH61): 27±0.8% | Percent conversion of milled washed PCS ([2]; day 1, cellulase 2 mg per g cellulose, GH61 at 25% (w/w) of the cellulase composition, 24±0.7% in the absence of GH61): 27±0.8% | Percent conversion of milled washed PCS ([2]; day 1, cellulase 2 mg per g cellulose, GH61 at 50% (w/w) of the cellulase composition, 24±0.7% in the absence of GH61): 27±0.8% | Percent conversion of milled washed PCS ([2]; day 3, GH61 present (0.4 mg per g cellulose), cellulase 4 mg per g cellulose, no heterocyclic compound, 55±1% in the absence of GH61): 72±1% | Percent conversion of milled washed PCS ([2]; day 3, cellulase 2 mg per g cellulose, GH61 at 10% (w/w) of the cellulase composition, 41±2% in the absence of GH61): 55±3% | Percent conversion of milled washed PCS ([2]; day 3, cellulase 2 mg per g cellulose, GH61 at 25% (w/w) of the cellulase composition, 41±2% in the absence of GH61): 57±0.5% | Percent conversion of milled washed PCS ([2]; day 3, cellulase 2 mg per g cellulose, GH61 at 50% (w/w) of the cellulase composition, 41±2% in the absence of GH61): 59±2% | Percent conversion of milled washed PCS ([2]; day 7, GH61 present (0.4 mg per g cellulose), cellulase 4 mg per g cellulose, no heterocyclic compound, 67±0.2% in the absence of GH61): 88±2% | Percent conversion of milled unwashed PCS ([5]; 1 day, cellulase 2 mg per g cellulose, 18.7±0.1% in the absence of GH61): 22.2±0.1% | Enhancement of hydrolysis of milled unwashed PCS by the presence of GH61 polypeptide ([5]; 1 day): 19% | Percent conversion of milled unwashed PCS ([5]; 3 days, cellulase 2 mg per g cellulose, 28.2±0.3% in the absence of GH61): 34.3±0.3% | Enhancement of hydrolysis of milled unwashed PCS by the presence of GH61 polypeptide ([5]; 3 days): 21% | Percent conversion of milled unwashed PCS ([5]; 7 days, cellulase 2 mg per g cellulose, 36.9±0.3% in the absence of GH61): 44.0±0.2% | Enhancement of hydrolysis of milled unwashed PCS by the presence of GH61 polypeptide ([5]; 7 days): 19%

Source: patent US10570431B2, “Compositions comprising a polypeptide having cellulolytic enhancing activity and a heterocyclic compound and uses thereof” (priority 2013, dated 2020)
